Assay results as given in article doi:10.1101/2022.05.12.491222.

Columns and labels:
[1] = biological target: LARGE1ΔTM treated with PNGase F (UniProt O95461); experiment: SEC-MALS
[2] = biological target: LARGE2ΔTM (UniProt Q8N3Y3); experiment: SAXS
[3] = biological target: LARGE2ΔTM (UniProt Q8N3Y3); experiment: SEC-MALS
[4] = biological target: LARGE1ΔTM (UniProt O95461); experiment: SAXS
[5] = biological target: LARGE1ΔTM (UniProt O95461); experiment: SEC-MALS
[6] = biological target: LARGE2ΔTM treated with PNGase F (UniProt Q8N3Y3); experiment: SEC-MALS

A stoichiometry N [1] of 2 was found for “LARGE1ΔTM treated with PNGase F (from UniProt O95461 34-756) (enzyme)” in this work.

A stoichiometry N [2] of 2 and a stoichiometry N [3] of 2 were found for “LARGE2ΔTM (from UniProt Q8N3Y3 1-721) (enzyme)” in this work.

A stoichiometry N [4] of 2 and a stoichiometry N [5] of 2 were found for “LARGE1ΔTM (from UniProt O95461 34-756) (enzyme)” in this work.

A stoichiometry N [6] of 2 was found for “LARGE2ΔTM treated with PNGase F (from UniProt Q8N3Y3 1-721) (enzyme)” in this work.
